Target: T1, 6xHis–Rab35^WT full-length (human, UniProt Q15286 1-201)
T1 construct: Rab35 GTPase, full-length, wild type; Exchanged with 1 mM GDP or 200 μM GTPγS before the pull-down; The species is not repeated for the His construct; also called 6xHis-tagged Rab35^WT; source: E. coli BL21 pLysS, purified (Ni-NTA Magnetic Agarose Beads)
Experiment: pull-down; GST–PODXL tail or GST on glutathione Sepharose 4B beads incubated with 6xHis-Rab proteins exchanged with 1 mM GDP or 200 μM GTPγS; 25 mM Tris pH 7.5, 50 mM NaCl, 10 mM MgCl2, 0.1% Triton X-100, 0.2% BSA; western blot with anti-6xHis
Conditions: both partners purified

T1 sequence (Q15286 whole entry): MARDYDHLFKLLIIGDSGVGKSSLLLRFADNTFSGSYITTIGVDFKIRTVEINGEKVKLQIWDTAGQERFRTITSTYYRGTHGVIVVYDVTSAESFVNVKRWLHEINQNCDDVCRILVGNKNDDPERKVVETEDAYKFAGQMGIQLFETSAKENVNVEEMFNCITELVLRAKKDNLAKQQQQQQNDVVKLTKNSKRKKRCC

B1: GST–PODXL WT (aa 476–551) (domain or fragment, rabbit, UniProt Q28645 476-551, looked up)
chain: CHQRLSHRKDQQRLTEELQTVENGYHDNPTLEVMETSAEMQEKKVVNLNGELGDSWIVPLDNLTKDDLDEEEDTHL
notes: The species is not repeated for the GST construct; source: E. coli BL21 pLysS, purified (glutathione Sepharose 4B)
Q: Does B1 bind?
A: binds

Source: article PMC4822036, “Rab35 GTPase couples cell division with initiation of epithelial apico-basal polarity and lumen opening” (Nature Communications, 2016)
